Laboratory results: article PMC8639829

Assays:
LASV L protein (WT) [1] = target: T1, LASV L protein (WT) (Lassa virus Bantou 289, UniProt A0A3S8NV63 1-2217); assay: cryo-EM; PRE-[…]ON, 3.34 A; conditions: protein: recombinant; tags: internal StrepII after residue 407, or C-terminal StrepII-His
LASV L protein (WT) [2] = target: T1, LASV L protein (WT); assay: EMSA; conditions: protein: recombinant; tags: internal StrepII after residue 407, or C-terminal StrepII-His; label: 5' Cyanine3; single strand

Binder | binding result (LASV L protein (WT) [1]) | binding result (LASV L protein (WT) [2])
full promoter: 5' vRNA 0-19 / 3' vRNA 1-19 (structured_RNA) RNA 1: GCGCACCGGGGAUCCUAGGC RNA 2: GCCUAGGAUCCACUGUGCG | binds | 
CCACUGUGCG (ssRNA) [3' vRNA 1-10 nt] |  | binds
